Data taken from patent US20070031418A1 (published 2007).
Each block holds one molecule with its values, some of them ahead of it.

Columns and labels:
[1] = biological target: trkC receptor in stable trkC expressing CHO cells; assay: cell-based or functional assay
[2] = biological target: trkC receptor of embryonic rat trigeminal neurons (rat) (UniProt Q03351); assay: cell-based or functional assay
human trkC = biological target: T1, human trkC (human, UniProt Q16288 32-429, limits assumed); assay: BIAcore analysis (SPR); format not stated
T1 construct: also called htrkC

trkC receptor of embryonic rat trigeminal neurons (rat), sequence (Q03351 32-864): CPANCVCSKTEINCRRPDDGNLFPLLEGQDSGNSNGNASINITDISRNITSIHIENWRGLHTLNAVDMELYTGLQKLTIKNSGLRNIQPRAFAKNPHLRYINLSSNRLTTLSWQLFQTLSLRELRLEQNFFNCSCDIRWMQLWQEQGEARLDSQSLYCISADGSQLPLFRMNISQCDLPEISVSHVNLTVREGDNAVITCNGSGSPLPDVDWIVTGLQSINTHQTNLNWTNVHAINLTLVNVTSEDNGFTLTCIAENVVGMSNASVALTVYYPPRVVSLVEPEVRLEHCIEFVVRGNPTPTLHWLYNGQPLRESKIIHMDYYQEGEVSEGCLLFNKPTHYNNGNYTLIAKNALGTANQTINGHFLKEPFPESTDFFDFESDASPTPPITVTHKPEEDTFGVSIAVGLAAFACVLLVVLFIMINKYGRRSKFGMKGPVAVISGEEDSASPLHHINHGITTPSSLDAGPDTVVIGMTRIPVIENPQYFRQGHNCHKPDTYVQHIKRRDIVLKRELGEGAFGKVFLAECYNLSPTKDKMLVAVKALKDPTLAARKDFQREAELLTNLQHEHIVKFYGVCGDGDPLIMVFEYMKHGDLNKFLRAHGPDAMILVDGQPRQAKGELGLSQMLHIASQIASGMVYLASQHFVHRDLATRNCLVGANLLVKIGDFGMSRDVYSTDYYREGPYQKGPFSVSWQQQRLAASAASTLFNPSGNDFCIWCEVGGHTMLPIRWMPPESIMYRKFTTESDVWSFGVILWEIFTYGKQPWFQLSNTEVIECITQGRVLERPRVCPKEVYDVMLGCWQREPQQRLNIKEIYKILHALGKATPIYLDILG

trkC tyrosine phosphorylation, half maximum effective concentration (EC50) [1]: 1.09 nM
Molecule: NT3 (ligand)
survival of embryonic rat trigeminal neuron cultures, EC50 [2]: 0.73 pM

Kd (human trkC): ~0.28 nM
B1: humanized anti-trkC agonist antibody A5 (antibody, V domains shown)
VH: QVQLVQSGAEVKKPGASVKVSCKASGYTFTSYRIHWVRQAPGQGLEWMGEIYPSNARTNYNEKFKSRVTMTRDTSTSTVYMELSSLRSEDTAVYYCARKYYYGNTRRSWYFDVWGQGTTVTVS
VL: DIQMTQSPSSLSASVGDRVTITCRASESIDNYGISFLAWYQQKPGKAPKLLIYAASNRGSGVPSRFSGSGSGTDFTFTISSLQPEDIATYYCQQSKTVPRTFGQGTKLEIKR
